Measurements: PMC2796330 (Molecular cell, 2009)
Where no end group is shown, it is not given here. [ ]: non-standard residue; d: D form. pT = C[C@@H](OP(=O)(O)O)[C@H](N)C(=O)O

How the values were obtained:
[1] = target: recombinant Nedd4L WW2 domain; assay: ITC
Smurf1 WW2 domain = assay: ITC
Smurf1 WW2 domain, sequence (Q9HCE7 whole entry, the tested form may be a part): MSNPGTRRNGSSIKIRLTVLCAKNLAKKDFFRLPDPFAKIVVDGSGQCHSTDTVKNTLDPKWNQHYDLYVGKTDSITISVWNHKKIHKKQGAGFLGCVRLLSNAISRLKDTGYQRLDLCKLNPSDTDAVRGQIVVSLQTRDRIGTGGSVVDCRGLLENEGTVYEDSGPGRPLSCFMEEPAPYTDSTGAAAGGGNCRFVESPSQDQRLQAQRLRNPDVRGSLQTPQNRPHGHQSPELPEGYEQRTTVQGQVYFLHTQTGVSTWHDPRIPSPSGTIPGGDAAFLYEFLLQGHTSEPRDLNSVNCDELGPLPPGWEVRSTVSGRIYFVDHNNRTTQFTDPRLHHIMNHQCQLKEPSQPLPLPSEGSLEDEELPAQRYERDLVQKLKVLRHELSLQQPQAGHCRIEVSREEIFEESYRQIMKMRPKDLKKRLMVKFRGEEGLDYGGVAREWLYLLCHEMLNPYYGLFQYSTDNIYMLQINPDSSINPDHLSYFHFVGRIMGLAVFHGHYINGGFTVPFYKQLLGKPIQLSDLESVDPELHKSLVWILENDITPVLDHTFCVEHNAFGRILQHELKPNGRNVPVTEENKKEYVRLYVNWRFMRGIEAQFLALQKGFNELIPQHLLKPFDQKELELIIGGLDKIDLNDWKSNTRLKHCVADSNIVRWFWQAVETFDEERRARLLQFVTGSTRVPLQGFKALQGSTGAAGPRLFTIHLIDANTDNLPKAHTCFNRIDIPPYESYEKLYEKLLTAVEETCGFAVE

recombinant Nedd4L WW2 domain, sequence (Q96PU5 whole entry, the tested form may be a part): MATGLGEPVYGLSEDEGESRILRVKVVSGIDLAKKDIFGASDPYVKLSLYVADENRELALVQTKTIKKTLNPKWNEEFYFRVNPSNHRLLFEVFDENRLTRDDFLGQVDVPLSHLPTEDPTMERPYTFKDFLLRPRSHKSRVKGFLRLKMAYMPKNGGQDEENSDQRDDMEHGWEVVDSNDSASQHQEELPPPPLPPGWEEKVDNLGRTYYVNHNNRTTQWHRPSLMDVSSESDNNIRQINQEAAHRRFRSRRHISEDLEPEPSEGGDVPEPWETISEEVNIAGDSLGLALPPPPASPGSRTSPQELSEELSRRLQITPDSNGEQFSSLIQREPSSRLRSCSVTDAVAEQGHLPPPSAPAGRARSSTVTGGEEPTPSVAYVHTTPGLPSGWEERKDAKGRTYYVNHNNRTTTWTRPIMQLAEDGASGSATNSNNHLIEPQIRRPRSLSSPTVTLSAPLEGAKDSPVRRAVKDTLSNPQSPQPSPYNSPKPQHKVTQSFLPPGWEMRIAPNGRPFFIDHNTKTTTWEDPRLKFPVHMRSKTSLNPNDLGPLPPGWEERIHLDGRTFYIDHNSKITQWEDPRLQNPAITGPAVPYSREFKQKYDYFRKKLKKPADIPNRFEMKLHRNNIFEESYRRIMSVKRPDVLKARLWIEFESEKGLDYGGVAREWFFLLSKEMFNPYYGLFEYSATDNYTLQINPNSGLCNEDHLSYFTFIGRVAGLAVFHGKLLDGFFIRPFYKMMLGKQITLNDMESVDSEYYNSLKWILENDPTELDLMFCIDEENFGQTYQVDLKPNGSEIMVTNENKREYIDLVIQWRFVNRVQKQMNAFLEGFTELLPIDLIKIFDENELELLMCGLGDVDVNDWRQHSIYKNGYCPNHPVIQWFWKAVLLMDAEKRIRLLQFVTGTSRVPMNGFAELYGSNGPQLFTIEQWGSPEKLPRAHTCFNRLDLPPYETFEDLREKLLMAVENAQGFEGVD

Question: For IPE[pT]PPPGYISED [Smad2 pT-PY motif peptide (phosphothreonine)], which Kd [1] is on record?
Answer: The Kd was 7.8 µM.

Question: What does the source list for IPE[pT]PPPGYLSED [Smad3 pT-PY motif peptide (phosphothreonine)]?
Answer: Kd [1]: 4.1 µM; Kd (Smurf1 WW2 domain): 36 µM

Question: How did the Kd (Smurf1 WW2 domain) turn out when PADTPPPAYLPPE [Smad1 T-PY motif peptide] was run?
Answer: Its Kd is 32 µM.
